For one assay, the target named is GST-Exo70p (yeast, UniProt P19658 1-623). Kind of assay: pull-down.
A further assay concerns the target T1, GST-Bem1p (yeast, UniProt P29366 1-551).
T1 sequence (looked up): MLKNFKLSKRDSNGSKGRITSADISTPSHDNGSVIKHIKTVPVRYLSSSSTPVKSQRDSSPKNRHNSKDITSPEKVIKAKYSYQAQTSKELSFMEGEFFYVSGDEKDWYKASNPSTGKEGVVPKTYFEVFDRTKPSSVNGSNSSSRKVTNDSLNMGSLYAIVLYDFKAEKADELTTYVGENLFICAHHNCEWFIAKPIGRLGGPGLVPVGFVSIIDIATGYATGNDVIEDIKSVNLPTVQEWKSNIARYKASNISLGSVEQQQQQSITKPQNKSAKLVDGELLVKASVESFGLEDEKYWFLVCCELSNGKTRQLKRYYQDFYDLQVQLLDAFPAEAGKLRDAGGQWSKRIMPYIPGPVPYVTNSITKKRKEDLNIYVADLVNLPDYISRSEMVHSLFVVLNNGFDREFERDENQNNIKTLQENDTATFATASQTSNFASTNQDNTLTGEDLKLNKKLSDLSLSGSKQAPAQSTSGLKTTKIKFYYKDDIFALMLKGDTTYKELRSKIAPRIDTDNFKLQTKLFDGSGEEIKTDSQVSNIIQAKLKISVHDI
The assay is described as follows: pull-down.

What is called Kd is the constant that tells how readily two partners part at equilibrium. The low end stands for tighter binding, the high end for weaker binding.

GST-Exo70p, sequence (P19658 whole entry): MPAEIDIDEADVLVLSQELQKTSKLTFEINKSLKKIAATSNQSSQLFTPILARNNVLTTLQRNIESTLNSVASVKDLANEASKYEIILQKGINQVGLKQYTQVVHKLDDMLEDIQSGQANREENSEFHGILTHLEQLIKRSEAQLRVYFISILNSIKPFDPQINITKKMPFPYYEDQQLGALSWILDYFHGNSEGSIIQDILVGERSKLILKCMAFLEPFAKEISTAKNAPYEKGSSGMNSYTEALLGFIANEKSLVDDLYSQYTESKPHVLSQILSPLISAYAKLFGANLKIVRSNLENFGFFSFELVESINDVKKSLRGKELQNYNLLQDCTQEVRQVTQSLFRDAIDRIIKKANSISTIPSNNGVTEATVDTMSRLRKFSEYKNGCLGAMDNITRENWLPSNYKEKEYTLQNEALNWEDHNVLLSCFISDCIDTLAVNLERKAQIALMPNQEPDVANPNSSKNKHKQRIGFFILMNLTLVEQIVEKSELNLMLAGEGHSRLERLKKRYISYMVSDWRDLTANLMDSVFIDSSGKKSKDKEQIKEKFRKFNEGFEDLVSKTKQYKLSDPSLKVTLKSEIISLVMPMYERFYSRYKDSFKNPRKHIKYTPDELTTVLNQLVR

B1: Bem1p-His6 (natural protein, yeast, UniProt P29366 1-551, looked up)
chain: MLKNFKLSKRDSNGSKGRITSADISTPSHDNGSVIKHIKTVPVRYLSSSSTPVKSQRDSSPKNRHNSKDITSPEKVIKAKYSYQAQTSKELSFMEGEFFYVSGDEKDWYKASNPSTGKEGVVPKTYFEVFDRTKPSSVNGSNSSSRKVTNDSLNMGSLYAIVLYDFKAEKADELTTYVGENLFICAHHNCEWFIAKPIGRLGGPGLVPVGFVSIIDIATGYATGNDVIEDIKSVNLPTVQEWKSNIARYKASNISLGSVEQQQQQSITKPQNKSAKLVDGELLVKASVESFGLEDEKYWFLVCCELSNGKTRQLKRYYQDFYDLQVQLLDAFPAEAGKLRDAGGQWSKRIMPYIPGPVPYVTNSITKKRKEDLNIYVADLVNLPDYISRSEMVHSLFVVLNNGFDREFERDENQNNIKTLQENDTATFATASQTSNFASTNQDNTLTGEDLKLNKKLSDLSLSGSKQAPAQSTSGLKTTKIKFYYKDDIFALMLKGDTTYKELRSKIAPRIDTDNFKLQTKLFDGSGEEIKTDSQVSNIIQAKLKISVHDI
B1: in the assay with GST-Exo70p, the Kd is roughly 260 nM.

B2: His6-MBP-Cdc24^781-854p (domain or fragment, yeast, UniProt P11433 781-854, looked up)
chain: FTLLVEKVWNFDDLIMAINSKISNTHNNNISPITKIKYQDEDGDFVVLGSDEDWNVAKEMLAENNEKFLNIRLY
On to B2, for which, in the assay with GST-Bem1p, the binding result is “binds”.
